Laboratory results as given in patent publication US20050025760A1 (KEIO UNIVERSITY, published 2005).

Legend:
[1] = target: T1, recombinant protein mouse Dsg1-His (mouse, UniProt Q61495 50-564, limits assumed); test: ELISA on recombinant mouse Dsg1-His
T1 construct: not shown: His tag
T1 sequence (looked up): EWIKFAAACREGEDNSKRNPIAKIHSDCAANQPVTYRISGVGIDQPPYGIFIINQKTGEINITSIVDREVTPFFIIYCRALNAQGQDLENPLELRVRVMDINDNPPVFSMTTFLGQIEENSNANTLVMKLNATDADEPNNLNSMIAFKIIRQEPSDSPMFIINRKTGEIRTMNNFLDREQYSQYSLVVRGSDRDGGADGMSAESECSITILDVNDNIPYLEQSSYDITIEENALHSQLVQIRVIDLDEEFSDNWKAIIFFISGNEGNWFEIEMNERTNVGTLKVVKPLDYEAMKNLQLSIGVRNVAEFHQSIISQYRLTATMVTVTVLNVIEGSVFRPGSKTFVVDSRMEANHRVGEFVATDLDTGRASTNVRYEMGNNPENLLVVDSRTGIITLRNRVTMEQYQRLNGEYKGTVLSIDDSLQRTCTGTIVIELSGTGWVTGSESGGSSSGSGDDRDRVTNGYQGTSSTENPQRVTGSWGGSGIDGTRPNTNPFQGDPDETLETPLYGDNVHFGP
Text: The baculovirus vectors, pEVmod-Dsg3-His and pEVmod-Dsg1-His, pEVmod-mouse Dsg3-His and pEVmod-mouse Dsg1 -His, that were constructed according to the method as described previously (J. Immunol. 159, 2010-2017, 1997) were used. These recombinant baculoviruses were infected to insect cells, High Five (Invitrogen Corporation), then the recombinant protein human Dsg3-His and Dsg1-His, recombinant protein mouse Dsg3-His and Dsg1-His were collected from the culture media, respectively. In addition, purification of these recombinant proteins was conducted using Ni-NTA column. These purified recombinant proteins were coated on ELISA (Enzyme Linked Immunosorbent Assay) plates, respectively, 50 μl each of the culture supernatant of the anti-Dsg3 monoclonal antibody-producing hybridoma was added to each well, and ELISA was practiced according to the method as previously described (J Clin Invest 105, 625-631, 2000). PV mouse model 1 serum with moderate degree of antibody titer was selected as a positive control, and 1 serum of normal mouse serum was selected as a negative control. Absorbance was determined at wavelength 450 nm (Bio-rad, Hercules, Calif. USA), and the index was shown by the following formula. Index={OD(specimen)−OD(negative control)}/{OD(positive control)−OD(negative control)}×100 A-2 (Living Cell Staining using Culture Mouse Keratinocyte PAM 212)

Dsg3-M6 = target: T2, Dsg3-M6 (human, UniProt P32926 50-615, A83S; Q84M); test: immunoprecipitation of point-mutated molecules (FIG. 5)
T2 construct: extracellular domain; also called point-mutated human Dsg3 molecule M6; not shown: His tag of vector pEVmod-His
T2 sequence (looked up): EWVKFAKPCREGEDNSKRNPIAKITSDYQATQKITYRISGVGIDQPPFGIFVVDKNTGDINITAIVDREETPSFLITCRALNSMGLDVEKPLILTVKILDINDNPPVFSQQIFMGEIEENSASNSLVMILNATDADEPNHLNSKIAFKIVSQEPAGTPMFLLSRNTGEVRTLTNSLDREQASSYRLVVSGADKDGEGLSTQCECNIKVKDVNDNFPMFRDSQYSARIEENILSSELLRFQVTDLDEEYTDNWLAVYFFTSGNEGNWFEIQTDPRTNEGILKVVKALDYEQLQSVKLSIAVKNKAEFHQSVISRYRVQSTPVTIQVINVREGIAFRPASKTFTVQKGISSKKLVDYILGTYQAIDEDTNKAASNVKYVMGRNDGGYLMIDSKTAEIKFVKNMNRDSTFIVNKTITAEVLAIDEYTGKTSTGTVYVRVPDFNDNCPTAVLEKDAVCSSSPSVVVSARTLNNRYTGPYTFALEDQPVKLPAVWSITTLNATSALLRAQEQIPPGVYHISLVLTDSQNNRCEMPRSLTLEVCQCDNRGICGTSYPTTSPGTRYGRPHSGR

B1: anti-Dsg3 monoclonal antibody AK23 (antibody, mouse IgG1, V domains shown)
VH: QVQLQQSGTELVKPGASVKLSCKSSGYTFTSYWINWVKQRPGQGLEWIGNINPSNGGINYNEKFKSKATLTVDKSSSTAYMQLKSLTSEDSAVYYCARGGYDGYPWGQGTTVTVS
VL: DIQMTQSPKFLLVSAGDRVTITCKASQSVSYDVAWYQQKPGQSPKLLISYASNRYTGVPDRFTGSGYGSDFTFTISTVQTEDLAVYFCQQDYSSPWTFGGGTKLELKR
notes: Mouse IgG1 kappa hybridoma antibody
**Q.** Does B1 bind [1]?
**A.** no binding

**Q.** Does B1 bind (Dsg3-M6)?
**A.** binds
